The values that follow come from FireProtDB (doi:10.1016/s0022-2836(02)00630-7).

The conditions of this data set: Bacillus subtilis (strain 168); pH 7; Thermal; CD; Potassium phosphate 10 mM; reversible: yes; whole UniProt chain shown.

As a reminder, the Tm is the temperature at which the thermal transition is half complete.

B1: Phosphocarrier protein HPr wild type, P08877 (protein)
chain: MAQKTFKVTADSGIHARPATVLVQTASKYDADVNLEYNGKTVNLKSIMGVMSLGIAKGAEITISASGADENDALNALEETMKSEGLGE
B1: the Tm amounted to 72.6 °C and the “unfolding enthalpy (van 't Hoff)” value came to 74.9 kcal/mol.
